{
  "source": "paper PMC6987225",
  "about": "“Eukaryotic transcription factors can track and control their target genes using DNA antennas”",
  "binders": {"B1": {"name": "150 bp TAATTG (m6) (dsDNA)", "DNA 1": "TTCTTAACCAAATTGAATTCTCGCCACCGATCGTGTTCGCCCGAAATAAATCTGGCCGAAAAGCCATCAATCTATAATTGCAATCTAACTGTGCCTCGGTTTATACCTCCAACTGCCGTTCACCGAAAAGGCCGACAGTTTTCCGACAAA", "DNA 2": "TTTGTCGGAAAACTGTCGGCCTTTTCGGTGAACGGCAGTTGGAGGTATAAACCGAGGCACAGTTAGATTGCAATTATAGATTGATGGCTTTTCGGCCAGATTTATTTCGGGCGAACACGATCGGTGGCGAGAATTCAATTTGGTTAAGAA"}, "B2": {"name": "38 bp TAATTG (dsDNA)", "DNA 1": "AAAAGCCATCAATCTATAATTGCAATCTAACTGTGCCT", "DNA 2": "AGGCACAGTTAGATTGCAATTATAGATTGATGGCTTTT"}, "B3": {"name": "75 bp CGTGTT shuffled (m5) (dsDNA)", "DNA 1": "GCTCGACATAGATCTGACTGACATGCTATCAGTCTACGTGTTCAGTCTAGCTGTGCATCGATCTATACATCTAGC", "DNA 2": "GCTAGATGTATAGATCGATGCACAGCTAGACTGAACACGTAGACTGATAGCATGTCAGTCAGATCTATGTCGAGC"}, "B4": {"name": "75 bp TAATTG high G/C (m3) (dsDNA)", "DNA 1": "CCCCCTCCCACCCCTCCACCCCCTCCCCTCCCCCCCTAATTGCCCTCCCCTCCCCCACCCCCTCCCCCACCCCCT", "DNA 2": "AGGGGGTGGGGGAGGGGGTGGGGGAGGGGAGGGCAATTAGGGGGGGAGGGGAGGGGGTGGAGGGGTGGGAGGGGG"}, "B5": {"name": "150 bp TAATTG half original/half shuffled (m8) (dsDNA)", "DNA 1": "TACTCATCGATACTCAGTACTCGCGACGCATCGTGTACGCCCGAAATAAATCTGGCCGAAAAGCCATCAATCTATAATTGCAATCTAACTGTGCCTCGGTTTATACCTCCAACTGCAGTACACTGATATGACAGACAGTATGCTCACATA", "DNA 2": "TATGTGAGCATACTGTCTGTCATATCAGTGTACTGCAGTTGGAGGTATAAACCGAGGCACAGTTAGATTGCAATTATAGATTGATGGCTTTTCGGCCAGATTTATTTCGGGCGTACACGATGCGTCGCGAGTACTGAGTATCGATGAGTA"}, "B6": {"name": "150 bp TAATTG shuffled (m7) (dsDNA)", "DNA 1": "TACTCATCGATACTCAGTACTCGCGACGCATCGTGTACGCGCGACATACATCTCACTGATACGCGATCACTCTATAATTGCACTCTATCTGTGCATCGCTCTATAGCTCTATCTGCAGTACACTGATATGACAGACAGTATGCTCACATA", "DNA 2": "TATGTGAGCATACTGTCTGTCATATCAGTGTACTGCAGATAGAGCTATAGAGCGATGCACAGATAGAGTGCAATTATAGAGTGATCGCGTATCAGTGAGATGTATGTCGCGCGTACACGATGCGTCGCGAGTACTGAGTATCGATGAGTA"}, "B7": {"name": "75 bp TAATTG (m2) (dsDNA)", "DNA 1": "GCCCGAAATAAATCTGGCCGAAAAGCCATCAATCTATAATTGCAATCTAACTGTGCCTCGGTTTATACCTCCAAC", "DNA 2": "GTTGGAGGTATAAACCGAGGCACAGTTAGATTGCAATTATAGATTGATGGCTTTTCGGCCAGATTTATTTCGGGC"}, "B8": {"name": "75 bp TAATTT (dsDNA)", "DNA 1": "B7 DNA 1 with G42T", "DNA 2": "B7 DNA 2 with C34A"}, "B9": {"name": "75 bp TAATTA (m1) (dsDNA)", "DNA 1": "B7 DNA 1 with G42A", "DNA 2": "B7 DNA 2 with C34T"}, "B10": {"name": "75 bp GAATTG (dsDNA)", "DNA 1": "B7 DNA 1 with T37G", "DNA 2": "B7 DNA 2 with A39C"}, "B11": {"name": "75 bp TATATA (dsDNA)", "DNA 1": "B7 DNA 1 with A39T, T40A, G42A", "DNA 2": "B7 DNA 2 with C34T, A36T, T37A"}, "B12": {"name": "75 bp CGTGTT (m4) (dsDNA)", "DNA 1": "B7 DNA 1 with T37C, A38G, A39T, T40G, G42T", "DNA 2": "B7 DNA 2 with C34A, A36C, T37A, T38C, A39G"}},
  "details_in_all_cases": "protein: recombinant; tags: C-terminal Cys added, labeled with Alexa 488 C5-maleimide; blunt",
  "key": {"[1]": {"target": "T1, EngHD (Engrailed homeodomain, DNA-binding domain) (Drosophila melanogaster, UniProt P02836 454-513)", "T1 sequence": "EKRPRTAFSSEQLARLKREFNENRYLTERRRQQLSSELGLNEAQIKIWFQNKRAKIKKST", "experiment": "FCS; 50 mM ionic strength; FCS, ~1 nM Alexa 488-EngHD with unlabeled dsDNA titrated; ionic strength 50 mM (NaCl) unless stated; buffer, pH and temperature not in the material"}, "[2]": {"target": "T1, EngHD (Engrailed homeodomain, …)", "experiment": "FCS; 50 mM ionic strength; FCS, ~1 nM Alexa 488-EngHD with unlabeled dsDNA titrated; ionic strength 50 mM (NaCl) unless stated; buffer, pH and temperature not in the material", "remark": "listed apart in the source"}, "[3]": {"target": "T1, EngHD (Engrailed homeodomain, …)", "experiment": "FCS; minimal difference from N7; FCS, ~1 nM Alexa 488-EngHD with unlabeled dsDNA titrated; ionic strength 50 mM (NaCl) unless stated; buffer, pH and temperature not in the material"}, "[4]": {"target": "T1, EngHD (Engrailed homeodomain, …)", "experiment": "FCS; 50 mM ionic strength; FCS, ~1 nM Alexa 488-EngHD with unlabeled dsDNA titrated; ionic strength 50 mM (NaCl) unless stated; buffer, pH and temperature not in the material", "remark": "listed apart in the source"}, "[5]": {"target": "T1, EngHD (Engrailed homeodomain, …)", "experiment": "FCS; affinity unchanged vs N8; FCS, ~1 nM Alexa 488-EngHD with unlabeled dsDNA titrated; ionic strength 50 mM (NaCl) unless stated; buffer, pH and temperature not in the material"}, "[6]": {"target": "T1, EngHD (Engrailed homeodomain, …)", "experiment": "FCS; 50 mM ionic strength; FCS, ~1 nM Alexa 488-EngHD with unlabeled dsDNA titrated; ionic strength 50 mM (NaCl) unless stated; buffer, pH and temperature not in the material", "remark": "listed apart in the source"}, "[7]": {"target": "T1, EngHD (Engrailed homeodomain, …)", "experiment": "FCS; 50 mM ionic strength; FCS, ~1 nM Alexa 488-EngHD with unlabeled dsDNA titrated; ionic strength 50 mM (NaCl) unless stated; buffer, pH and temperature not in the material", "remark": "listed apart in the source"}, "[8]": {"target": "T1, EngHD (Engrailed homeodomain, …)", "experiment": "FCS; 50 mM ionic strength; FCS, ~1 nM Alexa 488-EngHD with unlabeled dsDNA titrated; ionic strength 50 mM (NaCl) unless stated; buffer, pH and temperature not in the material", "remark": "listed apart in the source"}},
  "note": "Changes are numbered by the printed parent chain.",
  "data": [
    {"binder": "B1", "values": [
      {"measurement": "binding signal", "setting": "[1]", "value": "~2 fold higher affinity than 75 bp TAATTG (N2)"}
    ]},
    {"binder": "B2", "values": [
      {"measurement": "Kd", "setting": "[2]", "value": "7.26 -log10 M"}
    ]},
    {"binder": "B3", "values": [
      {"measurement": "binding result", "setting": "[3]", "value": "binds"}
    ]},
    {"binder": "B4", "values": [
      {"measurement": "Kd", "setting": "[4]", "value": "~700", "unit": "nM"}
    ]},
    {"binder": "B5", "values": [
      {"measurement": "binding result", "setting": "[5]", "value": "binds"}
    ]},
    {"binder": "B6", "values": [
      {"measurement": "binding result", "setting": "[5]", "value": "binds"}
    ]},
    {"binder": "B7", "values": [
      {"measurement": "Kd", "setting": "[6]", "value": "7.44 -log10 M"}
    ]},
    {"binder": "B8", "values": [
      {"measurement": "Kd", "setting": "[6]", "value": "7.79 -log10 M"}
    ]},
    {"binder": "B9", "values": [
      {"measurement": "Kd", "setting": "[7]", "value": "8.43 -log10 M"}
    ]},
    {"binder": "B10", "values": [
      {"measurement": "binding signal", "setting": "[8]", "value": "19 fold lower affinity than TAATTA (N3)"}
    ]},
    {"binder": "B11", "values": [
      {"measurement": "binding signal", "setting": "[8]", "value": "~10 fold lower affinity than TAATTA (N3)"}
    ]},
    {"binder": "B12", "values": [
      {"measurement": "binding signal", "setting": "[8]", "value": "22 fold lower affinity than TAATTA (N3)"}
    ]}
  ]
}
